In patent US20170002055A1, “Novel peptides and combination of peptides for use in immunotherapy against ovarian cancer and other cancers” (immatics biotechnologies GmbH, priority 2015, published 2017):

Target: HLA-A*02:01 (Homo sapiens, UniProt P04439, D140Y/D185E/D98H/E176V/E277Q/G131W/G231S/I119V/I121R/I166T/I218V/L300P/L318F/N151K/N90K/P208A/P217A/Q86G/Q94H/R138H/R169H/T345S)
Assay: MHC binding assay (UV-ligand exchange, β2m ELISA, peptide exchange yield)
Settings: MHC class I binding score; binding to HLA-A*02:01 ranged by peptide exchange yield (UV-ligand exchange, β2m ELISA)
Method in brief: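 Binding is expressed as peptide exchange yield: stabilized MHC complexes were quantified by β2m ELISA, with a 450 nm TMB read-out on streptavidin-coated plates. Complexes came from UV-ligand exchange, where UV irradiation cleaves a photolabile peptide so the candidate peptide can load.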

| Substance | Peptide exchange |
| --- | --- |
| 249 (LLDGFLVNV; listed as Homo sapiens) [compound 249] | “+++” (≧50 = +++) |
| 250 (ALSEEGLLVYL; listed as Homo sapiens) [compound 250] | “+++” (≧50 = +++) |
| 251 (ALYTGFSILV; listed as Homo sapiens) [compound 251] | “++” (≧20% = ++) |
| 252 (LLIGTDVSL; listed as Homo sapiens) [compound 252] | “+++” (≧50 = +++) |
| 253 (GLDAATATV; listed as Homo sapiens) [compound 253] | “++” (≧20% = ++) |
| 254 (TLLAFIMEL; listed as Homo sapiens) [compound 254] | “+++” (≧50 = +++) |
| 255 (VLASYNLTV; listed as Homo sapiens) [compound 255] | “+++” (≧50 = +++) |
| 256 (FLPPEHTIVYI; listed as Homo sapiens) [compound 256] | “+++” (≧50 = +++) |
| 257 (SIFSAFLSV; listed as Homo sapiens) [compound 257] | “+++” (≧50 = +++) |
| 258 (ELAERVPAI; listed as Homo sapiens) [compound 258] | “++” (≧20% = ++) |
| 261 (YVLEFLEEI; listed as Homo sapiens) [compound 261] | “++” (≧20% = ++) |
| 262 (LLWGDLIWL; listed as Homo sapiens) [compound 262] | “+++” (≧50 = +++) |
| 263 (LLVSNLDFGV; listed as Homo sapiens) [compound 263] | “+++” (≧50 = +++) |
| 264 (SLQEQLHSV; listed as Homo sapiens) [compound 264] | “+++” (≧50 = +++) |
| 265 (LLFGGTKTV; listed as Homo sapiens) [compound 265] | “++” (≧20% = ++) |
| 266 (KITDTLIHL; listed as Homo sapiens) [compound 266] | “+++” (≧50 = +++) |
| 267 (ALQDFLLSV; listed as Homo sapiens) [compound 267] | “+++” (≧50 = +++) |
| 269 (RVLEVGALQAV; listed as Homo sapiens) [compound 269] | “++” (≧20% = ++) |
| 270 (LLLDEEGTFSL; listed as Homo sapiens) [compound 270] | “++” (≧20% = ++) |
| 271 (LVYPLELYPA; listed as Homo sapiens) [compound 271] | “+++” (≧50 = +++) |
| 272 (ALGNTVPAV; listed as Homo sapiens) [compound 272] | “+++” (≧50 = +++) |
| 273 (NLFQSVREV; listed as Homo sapiens) [compound 273] | “++” (≧20% = ++) |
| 274 (SLLFSLFEA; listed as Homo sapiens) [compound 274] | “++” (≧20% = ++) |
| 275 (YLVYILNEL; listed as Homo sapiens) [compound 275] | “++” (≧20% = ++) |
| 276 (ALFTFSPLTV; listed as Homo sapiens) [compound 276] | “+++” (≧50 = +++) |
| 277 (LLPPLESLATV; listed as Homo sapiens) [compound 277] | “++” (≧20% = ++) |

| Substance | Peptide exchange |
| --- | --- |
| 278 (QLLDVVLTI; listed as Homo sapiens) [compound 278] | “++” (≧20% = ++) |
| 279 (ALWGGTQPLL; listed as Homo sapiens) [compound 279] | “++” (≧20% = ++) |
| 280 (VLPDPEVLEAV; listed as Homo sapiens) [compound 280] | “+++” (≧50 = +++) |
| 281 (ILRESTEEL; listed as Homo sapiens) [compound 281] | “+++” (≧50 = +++) |
| 282 (LLADVVPTT; listed as Homo sapiens) [compound 282] | “+++” (≧50 = +++) |
| 284 (ILLSQTTGV; listed as Homo sapiens) [compound 284] | “+++” (≧50 = +++) |
| 285 (QLLHVGVTV; listed as Homo sapiens) [compound 285] | “+++” (≧50 = +++) |
| 286 (YLFPGIPEL; listed as Homo sapiens) [compound 286] | “+++” (≧50 = +++) |
| 287 (FLNEFFLNV; listed as Homo sapiens) [compound 287] | “+++” (≧50 = +++) |
| 288 (NLINEINGV; listed as Homo sapiens) [compound 288] | “+++” (≧50 = +++) |
| 289 (VLLEIEDLQV; listed as Homo sapiens) [compound 289] | “++++” (≧75% = ++++) |
| 295 (VLDRESPNV; listed as Homo sapiens) [compound 295] | “+++” (≧50 = +++) |
| 296 (FMEGAIIYV; listed as Homo sapiens) [compound 296] | “+++” (≧50 = +++) |
| 297 (VLADIELAQA; listed as Homo sapiens) [compound 297] | “+++” (≧50 = +++) |
| 298 (VMITKLVEV; listed as Homo sapiens) [compound 298] | “+++” (≧50 = +++) |
| 299 (YLLETSGNL; listed as Homo sapiens) [compound 299] | “+++” (≧50 = +++) |
| 300 (ALLGQTFSL; listed as Homo sapiens) [compound 300] | “+++” (≧50 = +++) |
| 301 (FLVEDLVDSL; listed as Homo sapiens) [compound 301] | “+++” (≧50 = +++) |
| 302 (ALLQEGEVYSA; listed as Homo sapiens) [compound 302] | “+++” (≧50 = +++) |
| 303 (AILPQLFMV; listed as Homo sapiens) [compound 303] | “++++” (≧75% = ++++) |
| 304 (MTLGQIYYL; listed as Homo sapiens) [compound 304] | “+++” (≧50 = +++) |
| 305 (SIANFSEFYV; listed as Homo sapiens) [compound 305] | “++++” (≧75% = ++++) |
| 306 (ALVNVQIPL; listed as Homo sapiens) [compound 306] | “+++” (≧50 = +++) |
| 307 (ALPVSLPQI; listed as Homo sapiens) [compound 307] | “+++” (≧50 = +++) |
| 308 (SQYSGQLHEV; listed as Homo sapiens) [compound 308] | “+++” (≧50 = +++) |
| 309 (GLFDGVPTTA; listed as Homo sapiens) [compound 309] | “+++” (≧50 = +++) |

| Substance | Peptide exchange |
| --- | --- |
| 310 (FLVDTPLARA; listed as Homo sapiens) [compound 310] | “++++” (≧75% = ++++) |
| 311 (RLYTGMHTV; listed as Homo sapiens) [compound 311] | “+++” (≧50 = +++) |
| 312 (IISDLTIAL; listed as Homo sapiens) [compound 312] | “+++” (≧50 = +++) |
| 313 (VLFDDELLMV; listed as Homo sapiens) [compound 313] | “+++” (≧50 = +++) |
| 314 (ALIAEGIALV; listed as Homo sapiens) [compound 314] | “+++” (≧50 = +++) |
| 315 (YLQDVVEQA; listed as Homo sapiens) [compound 315] | “+++” (≧50 = +++) |
| 316 (ILLERLWYV; listed as Homo sapiens) [compound 316] | “+++” (≧50 = +++) |
| 317 (SLAALVVHV; listed as Homo sapiens) [compound 317] | “+++” (≧50 = +++) |
| 318 (GLINTGVLSV; listed as Homo sapiens) [compound 318] | “++” (≧20% = ++) |
| 320 (KMFEFVEPLL; listed as Homo sapiens) [compound 320] | “++++” (≧75% = ++++) |
| 321 (GLFEDVTQPGILL; listed as Homo sapiens) [compound 321] | “++++” (≧75% = ++++) |
| 322 (TLMTSLPAL; listed as Homo sapiens) [compound 322] | “+++” (≧50 = +++) |
| 324 (FLYDEIEAEV; listed as Homo sapiens) [compound 324] | “+++” (≧50 = +++) |
| 325 (FIMPATVADATAV; listed as Homo sapiens) [compound 325] | “+++” (≧50 = +++) |
| 326 (FLPEALDFV; listed as Homo sapiens) [compound 326] | “+++” (≧50 = +++) |
| 327 (GLAPFTEGISFV; listed as Homo sapiens) [compound 327] | “+++” (≧50 = +++) |
| 328 (ALNDQVFEI; listed as Homo sapiens) [compound 328] | “+++” (≧50 = +++) |
| 329 (FLVTLNNVEV; listed as Homo sapiens) [compound 329] | “++++” (≧75% = ++++) |
| 330 (QLALKVEGV; listed as Homo sapiens) [compound 330] | “+++” (≧50 = +++) |
| 331 (KVDTVWVNV; listed as Homo sapiens) [compound 331] | “+++” (≧50 = +++) |
| 332 (YLISELEAA; listed as Homo sapiens) [compound 332] | “+++” (≧50 = +++) |
| 333 (FLPDANSSV; listed as Homo sapiens) [compound 333] | “++” (≧20% = ++) |
| 334 (TLTKVLVAL; listed as Homo sapiens) [compound 334] | “+++” (≧50 = +++) |
| 335 (YSLSSVVTV; listed as Homo sapiens) [compound 335] | “+++” (≧50 = +++) |
| 336 (ILLTAIVQV; listed as Homo sapiens) [compound 336] | “+++” (≧50 = +++) |
| 337 (HLLSELEAAPYL; listed as Homo sapiens) [compound 337] | “++++” (≧75% = ++++) |
